Numbered stars: 1 amine (or outer) side, 2 acyl side, 3 side chain; on linkers, the order of the positions; unused ones are H or OH. Bridge positions count the residues as written; N and C are the ends. Square brackets hold non-standard residues; d marks the D form. Side chains are listed from the residue outwards. Ends that are not written are not given here. * marks the point of attachment. C18 diacid = O=C(O)CCCCCCCCCCCCCCCCC(=O)*; γGlu = O=C(O)[C@H](CCC(=O)[*:2])N[*:1]; Aib = CC(C)(N)C(=O)O
T1: human calcitonin receptor (human, UniProt P30988 25-474)
T1 sequence (looked up): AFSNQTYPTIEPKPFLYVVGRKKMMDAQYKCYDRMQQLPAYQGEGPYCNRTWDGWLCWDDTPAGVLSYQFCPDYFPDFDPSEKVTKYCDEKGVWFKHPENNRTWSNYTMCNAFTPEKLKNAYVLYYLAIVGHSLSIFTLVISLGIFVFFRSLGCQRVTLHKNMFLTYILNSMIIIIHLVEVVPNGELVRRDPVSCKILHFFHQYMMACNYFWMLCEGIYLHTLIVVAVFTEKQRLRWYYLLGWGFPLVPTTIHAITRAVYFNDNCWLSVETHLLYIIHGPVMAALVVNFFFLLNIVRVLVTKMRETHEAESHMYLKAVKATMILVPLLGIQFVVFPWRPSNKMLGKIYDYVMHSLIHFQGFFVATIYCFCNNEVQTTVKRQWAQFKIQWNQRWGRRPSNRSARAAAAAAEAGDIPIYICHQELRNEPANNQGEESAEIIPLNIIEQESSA

T2: human amylin receptor (calcitonin receptor co-expressed with receptor activity modifying protein, RAMP3) (human, UniProt P30988 25-474; O60896 24-148)
T2 sequence (looked up) 1: T1 sequence (looked up)
T2 sequence (looked up) 2: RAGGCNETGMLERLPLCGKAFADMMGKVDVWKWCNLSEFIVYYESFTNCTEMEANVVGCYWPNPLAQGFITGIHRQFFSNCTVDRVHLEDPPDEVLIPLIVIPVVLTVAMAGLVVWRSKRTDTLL

B1: Peptide 137 (SEQ ID NO: 137) (peptide)
peptide: K([γGlu-C18 diacid])KCNTATCATQRLANFL[Aib]HSSRNFGPILPPTNVGSNTY-NH2
modifications: disulfide 3-8; N-terminus assumed
SMILES: CC[C@H](C)[C@H](NC(=O)[C@@H]1CCCN1C(=O)CNC(=O)[C@H](Cc1ccccc1)NC(=O)[C@H](CC(N)=O)NC(=O)[C@H](CCCNC(=N)N)NC(=O)[C@H](CO)NC(=O)[C@H](CO)NC(=O)[C@H](Cc1c[nH]cn1)NC(=O)C(C)(C)NC(=O)[C@H](CC(C)C)NC(=O)[C@H](Cc1ccccc1)NC(=O)[C@H](CC(N)=O)NC(=O)[C@H](C)NC(=O)[C@H](CC(C)C)NC(=O)[C@H](CCCNC(=N)N)NC(=O)[C@H](CCC(N)=O)NC(=O)[C@@H](NC(=O)[C@H](C)NC(=O)[C@@H]1CSSC[C@H](NC(=O)[C@H](CCCCN)NC(=O)[C@@H](N)CCCCNC(=O)CC[C@H](NC(=O)CCCCCCCCCCCCCCCCC(=O)O)C(=O)O)C(=O)N[C@@H](CC(N)=O)C(=O)N[C@@H]([C@@H](C)O)C(=O)N[C@@H](C)C(=O)N[C@@H]([C@@H](C)O)C(=O)N1)[C@@H](C)O)C(=O)N[C@@H](CC(C)C)C(=O)N1CCC[C@H]1C(=O)N1CCC[C@H]1C(=O)N[C@H](C(=O)N[C@@H](CC(N)=O)C(=O)N[C@H](C(=O)NCC(=O)N[C@@H](CO)C(=O)N[C@@H](CC(N)=O)C(=O)N[C@H](C(=O)N[C@@H](Cc1ccc(O)cc1)C(N)=O)[C@@H](C)O)C(C)C)[C@@H](C)O
B2: Peptide 136 (SEQ ID NO: 136) (peptide)
peptide: K([γGlu-C18 diacid])KCNTATCATQRLANFL[Aib]HSSNNFGPILPPTNVGSNTP-NH2
modifications: disulfide 3-8; N-terminus assumed
SMILES: CC[C@H](C)[C@H](NC(=O)[C@@H]1CCCN1C(=O)CNC(=O)[C@H](Cc1ccccc1)NC(=O)[C@H](CC(N)=O)NC(=O)[C@H](CC(N)=O)NC(=O)[C@H](CO)NC(=O)[C@H](CO)NC(=O)[C@H](Cc1c[nH]cn1)NC(=O)C(C)(C)NC(=O)[C@H](CC(C)C)NC(=O)[C@H](Cc1ccccc1)NC(=O)[C@H](CC(N)=O)NC(=O)[C@H](C)NC(=O)[C@H](CC(C)C)NC(=O)[C@H](CCCNC(=N)N)NC(=O)[C@H](CCC(N)=O)NC(=O)[C@@H](NC(=O)[C@H](C)NC(=O)[C@@H]1CSSC[C@H](NC(=O)[C@H](CCCCN)NC(=O)[C@@H](N)CCCCNC(=O)CC[C@H](NC(=O)CCCCCCCCCCCCCCCCC(=O)O)C(=O)O)C(=O)N[C@@H](CC(N)=O)C(=O)N[C@@H]([C@@H](C)O)C(=O)N[C@@H](C)C(=O)N[C@@H]([C@@H](C)O)C(=O)N1)[C@@H](C)O)C(=O)N[C@@H](CC(C)C)C(=O)N1CCC[C@H]1C(=O)N1CCC[C@H]1C(=O)N[C@H](C(=O)N[C@@H](CC(N)=O)C(=O)N[C@H](C(=O)NCC(=O)N[C@@H](CO)C(=O)N[C@@H](CC(N)=O)C(=O)N[C@H](C(=O)N1CCC[C@H]1C(N)=O)[C@@H](C)O)C(C)C)[C@@H](C)O
B3: Peptide 138 (SEQ ID NO: 138) (peptide)
peptide: K([γGlu-C18 diacid])KCNTATCATQRLANFL[Aib]HSSPNFGPILPPTEVGSNTY-NH2
modifications: disulfide 3-8; N-terminus assumed
SMILES: CC[C@H](C)[C@H](NC(=O)[C@@H]1CCCN1C(=O)CNC(=O)[C@H](Cc1ccccc1)NC(=O)[C@H](CC(N)=O)NC(=O)[C@@H]1CCCN1C(=O)[C@H](CO)NC(=O)[C@H](CO)NC(=O)[C@H](Cc1c[nH]cn1)NC(=O)C(C)(C)NC(=O)[C@H](CC(C)C)NC(=O)[C@H](Cc1ccccc1)NC(=O)[C@H](CC(N)=O)NC(=O)[C@H](C)NC(=O)[C@H](CC(C)C)NC(=O)[C@H](CCCNC(=N)N)NC(=O)[C@H](CCC(N)=O)NC(=O)[C@@H](NC(=O)[C@H](C)NC(=O)[C@@H]1CSSC[C@H](NC(=O)[C@H](CCCCN)NC(=O)[C@@H](N)CCCCNC(=O)CC[C@H](NC(=O)CCCCCCCCCCCCCCCCC(=O)O)C(=O)O)C(=O)N[C@@H](CC(N)=O)C(=O)N[C@@H]([C@@H](C)O)C(=O)N[C@@H](C)C(=O)N[C@@H]([C@@H](C)O)C(=O)N1)[C@@H](C)O)C(=O)N[C@@H](CC(C)C)C(=O)N1CCC[C@H]1C(=O)N1CCC[C@H]1C(=O)N[C@H](C(=O)N[C@@H](CCC(=O)O)C(=O)N[C@H](C(=O)NCC(=O)N[C@@H](CO)C(=O)N[C@@H](CC(N)=O)C(=O)N[C@H](C(=O)N[C@@H](Cc1ccc(O)cc1)C(N)=O)[C@@H](C)O)C(C)C)[C@@H](C)O
B4: Peptide 141 (SEQ ID NO: 141) (peptide)
peptide: K([γGlu-C18 diacid])KCNTATCATQRLANFL[Aib]HSSNNFGPILPPTNVGSRTY-NH2
modifications: disulfide 3-8; N-terminus assumed
SMILES: CC[C@H](C)[C@H](NC(=O)[C@@H]1CCCN1C(=O)CNC(=O)[C@H](Cc1ccccc1)NC(=O)[C@H](CC(N)=O)NC(=O)[C@H](CC(N)=O)NC(=O)[C@H](CO)NC(=O)[C@H](CO)NC(=O)[C@H](Cc1c[nH]cn1)NC(=O)C(C)(C)NC(=O)[C@H](CC(C)C)NC(=O)[C@H](Cc1ccccc1)NC(=O)[C@H](CC(N)=O)NC(=O)[C@H](C)NC(=O)[C@H](CC(C)C)NC(=O)[C@H](CCCNC(=N)N)NC(=O)[C@H](CCC(N)=O)NC(=O)[C@@H](NC(=O)[C@H](C)NC(=O)[C@@H]1CSSC[C@H](NC(=O)[C@H](CCCCN)NC(=O)[C@@H](N)CCCCNC(=O)CC[C@H](NC(=O)CCCCCCCCCCCCCCCCC(=O)O)C(=O)O)C(=O)N[C@@H](CC(N)=O)C(=O)N[C@@H]([C@@H](C)O)C(=O)N[C@@H](C)C(=O)N[C@@H]([C@@H](C)O)C(=O)N1)[C@@H](C)O)C(=O)N[C@@H](CC(C)C)C(=O)N1CCC[C@H]1C(=O)N1CCC[C@H]1C(=O)N[C@H](C(=O)N[C@@H](CC(N)=O)C(=O)N[C@H](C(=O)NCC(=O)N[C@@H](CO)C(=O)N[C@@H](CCCNC(=N)N)C(=O)N[C@H](C(=O)N[C@@H](Cc1ccc(O)cc1)C(N)=O)[C@@H](C)O)C(C)C)[C@@H](C)O
B5: Peptide 135 (SEQ ID NO: 135) (peptide)
peptide: K([γGlu-C18 diacid])KCNTATCATQRLANFL[Aib]HSSNHFGPILPPTNVGSNTY-NH2
modifications: disulfide 3-8; N-terminus assumed
SMILES: CC[C@H](C)[C@H](NC(=O)[C@@H]1CCCN1C(=O)CNC(=O)[C@H](Cc1ccccc1)NC(=O)[C@H](Cc1c[nH]cn1)NC(=O)[C@H](CC(N)=O)NC(=O)[C@H](CO)NC(=O)[C@H](CO)NC(=O)[C@H](Cc1c[nH]cn1)NC(=O)C(C)(C)NC(=O)[C@H](CC(C)C)NC(=O)[C@H](Cc1ccccc1)NC(=O)[C@H](CC(N)=O)NC(=O)[C@H](C)NC(=O)[C@H](CC(C)C)NC(=O)[C@H](CCCNC(=N)N)NC(=O)[C@H](CCC(N)=O)NC(=O)[C@@H](NC(=O)[C@H](C)NC(=O)[C@@H]1CSSC[C@H](NC(=O)[C@H](CCCCN)NC(=O)[C@@H](N)CCCCNC(=O)CC[C@H](NC(=O)CCCCCCCCCCCCCCCCC(=O)O)C(=O)O)C(=O)N[C@@H](CC(N)=O)C(=O)N[C@@H]([C@@H](C)O)C(=O)N[C@@H](C)C(=O)N[C@@H]([C@@H](C)O)C(=O)N1)[C@@H](C)O)C(=O)N[C@@H](CC(C)C)C(=O)N1CCC[C@H]1C(=O)N1CCC[C@H]1C(=O)N[C@H](C(=O)N[C@@H](CC(N)=O)C(=O)N[C@H](C(=O)NCC(=O)N[C@@H](CO)C(=O)N[C@@H](CC(N)=O)C(=O)N[C@H](C(=O)N[C@@H](Cc1ccc(O)cc1)C(N)=O)[C@@H](C)O)C(C)C)[C@@H](C)O
B6: Peptide 139 (SEQ ID NO: 139) (peptide)
peptide: K([γGlu-C18 diacid])KCNTATCATQRLANFL[Aib]HSSPNFGPILPPTNVGSETY-NH2
modifications: disulfide 3-8; N-terminus assumed
SMILES: CC[C@H](C)[C@H](NC(=O)[C@@H]1CCCN1C(=O)CNC(=O)[C@H](Cc1ccccc1)NC(=O)[C@H](CC(N)=O)NC(=O)[C@@H]1CCCN1C(=O)[C@H](CO)NC(=O)[C@H](CO)NC(=O)[C@H](Cc1c[nH]cn1)NC(=O)C(C)(C)NC(=O)[C@H](CC(C)C)NC(=O)[C@H](Cc1ccccc1)NC(=O)[C@H](CC(N)=O)NC(=O)[C@H](C)NC(=O)[C@H](CC(C)C)NC(=O)[C@H](CCCNC(=N)N)NC(=O)[C@H](CCC(N)=O)NC(=O)[C@@H](NC(=O)[C@H](C)NC(=O)[C@@H]1CSSC[C@H](NC(=O)[C@H](CCCCN)NC(=O)[C@@H](N)CCCCNC(=O)CC[C@H](NC(=O)CCCCCCCCCCCCCCCCC(=O)O)C(=O)O)C(=O)N[C@@H](CC(N)=O)C(=O)N[C@@H]([C@@H](C)O)C(=O)N[C@@H](C)C(=O)N[C@@H]([C@@H](C)O)C(=O)N1)[C@@H](C)O)C(=O)N[C@@H](CC(C)C)C(=O)N1CCC[C@H]1C(=O)N1CCC[C@H]1C(=O)N[C@H](C(=O)N[C@@H](CC(N)=O)C(=O)N[C@H](C(=O)NCC(=O)N[C@@H](CO)C(=O)N[C@@H](CCC(=O)O)C(=O)N[C@H](C(=O)N[C@@H](Cc1ccc(O)cc1)C(N)=O)[C@@H](C)O)C(C)C)[C@@H](C)O

What follows are binders tested against T1, human calcitonin receptor (assay: cell-based or functional assay).

| EC50 (cAMP production) [nM] | Binder |
| --- | --- |
| 1.5 | B1 |
| 0.101 | B2 |
| 2.51 | B3 |
| 3.95 | B4 |
| 0.345 | B5 |
| 1.04 | B6 |

These binders were tested against T2, human amylin receptor (calcitonin …) (assay: cell-based or functional assay).

| EC50 (cAMP production) [nM] | Ratio (EC50 hCTR / EC50 hAMYR3) | Binder |
| --- | --- | --- |
| 0.238 | 6.3 | B1 |
| 0.122 | 0.8 | B2 |
| 0.612 | 4.1 | B3 |
| 0.414 | 9.5 | B4 |
| 0.296 | 1.2 | B5 |
| 0.285 | 3.7 | B6 |
